Key:
[1] = biological target: IFNAR2 ECD (Homo sapiens) (UniProt P48551); conditions: cited from earlier work
[2] = biological target: T1, Human interferon beta-1a (IFN-β, Rebif) (human), P01574; test: other fluorescence titration; tryptophan fluorescence of 0.5 µM IFN-β (excitation 295 nm) titrated by S100B; 25 °C; 10 mM HEPES-NaOH, 150 mM NaCl, 1 mM CaCl2, pH 7.4; one-site binding model; apparent; conditions: remark: other sources report otherwise
T1 chain: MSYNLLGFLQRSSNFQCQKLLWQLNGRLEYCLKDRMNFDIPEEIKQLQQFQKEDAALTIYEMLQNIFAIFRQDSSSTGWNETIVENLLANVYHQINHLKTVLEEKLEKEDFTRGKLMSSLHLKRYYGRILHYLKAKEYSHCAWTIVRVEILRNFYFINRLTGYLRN

[3] = biological target: the molecule itself; test: cross-linking; 5 µM IFN-β with 10 µM Ca2+-depleted S100B (1:2), and 10 µM apo-S100B alone; 40 mM EDAC, 10 mM sulfo-NHS, 25 °C, 1.5 h; 10 mM HEPES, 150 mM NaCl, pH 7.4, without CaCl2 and without chelator; authors say the samples could be contaminated by Ca2+
[4] = biological target: the molecule itself; test: cross-linking; 5 µM IFN-β alone; 40 mM EDAC, 10 mM sulfo-NHS, 25 °C, 1.5 h; 10 mM HEPES, 150 mM NaCl, pH 7.4; SDS-PAGE, silver staining; whether CaCl2 was present is not told for this lane
[5] = biological target: T2, Human S100B protein (human), P04271; test: SPR; S100B immobilised by amine coupling on ProteOn GLH chip (up to 9000 RU); analyte 10-80 nM IFN-β; 25 °C; 10 mM HEPES, 150 mM NaCl, 0.05% TWEEN 20, 1 mM CaCl2, pH 7.4; heterogeneous ligand model (two populations of ligand); conditions: remark: other sources report otherwise
T2 chain: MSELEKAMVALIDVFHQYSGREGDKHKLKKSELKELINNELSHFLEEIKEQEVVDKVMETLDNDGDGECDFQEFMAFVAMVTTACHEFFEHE

IFNAR2 ECD (Homo sapiens), sequence (P48551 27-243): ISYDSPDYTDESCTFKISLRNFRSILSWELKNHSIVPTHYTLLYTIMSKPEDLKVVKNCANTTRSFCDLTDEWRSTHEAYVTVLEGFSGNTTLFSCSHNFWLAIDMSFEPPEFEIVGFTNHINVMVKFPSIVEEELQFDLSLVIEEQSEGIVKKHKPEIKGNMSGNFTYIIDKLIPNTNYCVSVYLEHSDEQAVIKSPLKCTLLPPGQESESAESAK

Molecule: IFN-β (from UniProt P01574)
- Kd [1]: 0.0001 µM

B1: Human S100B protein (natural protein)
chain: MSELEKAMVALIDVFHQYSGREGDKHKLKKSELKELINNELSHFLEEIKEQEVVDKVMETLDNDGDGECDFQEFMAFVAMVTTACHEFFEHE
notes: human S100B, UniProt P04271; crystal structure of Ca2+-loaded human S100B dimer PDB 5D7F chains A and B; The authors take the S100B that was amine-coupled to the SPR chip to be partly converted to the monomer; also called apo-S100B; Ca^2+-loaded S100B
- Kd [2]: 0.021 µM
- stoichiometry N (S100B to IFN-β molar ratio) [2]: 1
- stoichiometry N [3]: 2

B2: Human interferon beta-1a (IFN-β, Rebif) (ligand, UniProt P01574 22-187, looked up)
chain: MSYNLLGFLQRSSNFQCQKLLWQLNGRLEYCLKDRMNFDIPEEIKQLQQFQKEDAALTIYEMLQNIFAIFRQDSSSTGWNETIVENLLANVYHQINHLKTVLEEKLEKEDFTRGKLMSSLHLKRYYGRILHYLKAKEYSHCAWTIVRVEILRNFYFINRLTGYLRN
notes: human interferon-β (interferon beta-1a), gene IFNB1, UniProt P01574; Drug product Rebif; also called Interferon-β; source: produced in CHO-K1 cells; bought: Merck (Rebif)
- binding result [4]: binds
- Kd1 (ligand population 1 of the heterogeneous ligand model) [5]: 47 pM
- Kd2 (ligand population 2 of the heterogeneous ligand model) [5]: 87 nM
- kd1 (dissociation rate constant, ligand population 1 of the heterogeneous ligand model) [5]: 0.000149 s⁻¹
- kd2 (dissociation rate constant, ligand population 2 of the heterogeneous ligand model) [5]: 0.013 s⁻¹
- t1/2 of dissociation (fast process) [5]: 1.67 min
- t1/2 of dissociation (slow process) [5]: > 16.7 min

From article PMC8877046, “Interferon-β Activity Is Affected by S100B Protein” (International Journal of Molecular Sciences, 2013)
